# *1 amine or outer side, *2 acyl side, *3 side chain or, on linkers, in order; H or OH if unused. Primed or numbered codes have the meaning given here. Side-chain parts run from the residue outwards. [ ]: non-standard residue; d: D form. The star is where a group is joined. PEG2DGA = 2-[2-[3-[2-[2-(3-aminopropoxy)ethoxy]ethoxy]propylamino-2-oxo-ethoxy]acetyl; TTDS″ = 4-[3-[2-[2-(3-aminopropoxy)ethoxy]ethoxy]propylamino]-4-oxo-butanoyl; TTDS(3) = O=C(CCC(=O)[*:2])NCCCOCCOCCOCCCN[*:1]; Trp(5-OH) = N[C@@H](Cc1c[nH]c2ccc(O)cc12)C(=O)O; TtdDga = O=C(COCC(=O)[*:2])NCCCOCCOCCOCCCN[*:1]; Docosanoyl = CCCCCCCCCCCCCCCCCCCCCC(=O)*; Arachidoyl = CCCCCCCCCCCCCCCCCCCC(=O)*; Heptadecanoyl = CCCCCCCCCCCCCCCCC(=O)*; γGlu = O=C(O)[C@H](CCC(=O)[*:2])N[*:1]; Pentadecanoyl = CCCCCCCCCCCCCCC(=O)*; Stearoyl = CCCCCCCCCCCCCCCCCC(=O)*; Palmitoyl = CCCCCCCCCCCCCCCC(=O)*; Myristoyl = CCCCCCCCCCCCCC(=O)*; αMeK = C[C@](N)(CCCCN)C(=O)O; Lauroyl = CCCCCCCCCCCC(=O)*; Nle = CCCC[C@H](N)C(=O)O; PEG2′ = PEG2 spacer unit; PEG2″ = not defined here; Aib = CC(C)(N)C(=O)O
# T1: RXFP1 receptor (UniProt Q9HBX9 1-757, limits assumed)
# T1 sequence (looked up): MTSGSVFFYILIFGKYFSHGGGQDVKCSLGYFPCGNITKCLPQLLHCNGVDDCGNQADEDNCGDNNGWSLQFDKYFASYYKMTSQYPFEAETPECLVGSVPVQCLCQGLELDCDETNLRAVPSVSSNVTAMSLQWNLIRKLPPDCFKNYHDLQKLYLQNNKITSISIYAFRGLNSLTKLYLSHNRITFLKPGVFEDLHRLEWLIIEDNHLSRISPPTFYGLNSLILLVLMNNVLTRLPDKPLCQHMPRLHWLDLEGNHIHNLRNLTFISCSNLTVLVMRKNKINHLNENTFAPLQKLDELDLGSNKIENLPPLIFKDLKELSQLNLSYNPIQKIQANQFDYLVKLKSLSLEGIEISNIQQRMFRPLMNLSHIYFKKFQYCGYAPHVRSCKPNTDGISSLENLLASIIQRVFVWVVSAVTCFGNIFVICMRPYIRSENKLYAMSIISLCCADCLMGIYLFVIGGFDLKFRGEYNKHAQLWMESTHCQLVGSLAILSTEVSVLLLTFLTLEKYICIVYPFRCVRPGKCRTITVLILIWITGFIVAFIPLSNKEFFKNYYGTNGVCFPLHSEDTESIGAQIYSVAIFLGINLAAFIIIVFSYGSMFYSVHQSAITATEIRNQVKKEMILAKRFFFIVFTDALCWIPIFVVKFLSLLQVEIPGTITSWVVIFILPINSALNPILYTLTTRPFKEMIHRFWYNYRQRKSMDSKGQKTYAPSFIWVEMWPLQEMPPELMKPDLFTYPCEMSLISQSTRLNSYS
# B1: peptide of SEQ ID NO: 157 (peptide)
# peptide: Ac-LEGREKVRAK(Ac)I[Aib][Aib]EG[Nle]STFS[αMeK]RAK(Ac)[TTDS(3)][TTDS(3)][γGlu][γGlu][γGlu]K([γGlu-Palmitoyl])-NH2
# SMILES: CCCCCCCCCCCCCCCC(=O)N[C@@H](CCC(=O)NCCCC[C@H](NC(=O)CC[C@H](NC(=O)CC[C@H](NC(=O)CC[C@H](NC(=O)CCC(=O)NCCCOCCOCCOCCCNC(=O)CCC(=O)NCCCOCCOCCOCCCNC(=O)[C@H](CCCCNC(C)=O)NC(=O)[C@H](C)NC(=O)[C@H](CCCNC(=N)N)NC(=O)[C@](C)(CCCCN)NC(=O)[C@H](CO)NC(=O)[C@H](Cc1ccccc1)NC(=O)[C@@H](NC(=O)[C@H](CO)NC(=O)[C@H](CCCC)NC(=O)CNC(=O)[C@H](CCC(=O)O)NC(=O)C(C)(C)NC(=O)C(C)(C)NC(=O)[C@@H](NC(=O)[C@H](CCCCNC(C)=O)NC(=O)[C@H](C)NC(=O)[C@H](CCCNC(=N)N)NC(=O)[C@@H](NC(=O)[C@H](CCCCN)NC(=O)[C@H](CCC(=O)O)NC(=O)[C@H](CCCNC(=N)N)NC(=O)CNC(=O)[C@H](CCC(=O)O)NC(=O)[C@H](CC(C)C)NC(C)=O)C(C)C)[C@@H](C)CC)[C@@H](C)O)C(=O)O)C(=O)O)C(=O)O)C(N)=O)C(=O)O
# B2: peptide of SEQ ID NO: 168 (peptide)
# peptide: Ac-LEGREKVRAK(Ac)I[Aib][Aib]EG[Nle]STFSXRAK(Ac)[PEG2′][PEG2′][PEG2′][PEG2′][γGlu][γGlu]K([γGlu-γGlu-Pentadecanoyl])-NH2
# modifications: not fully specified (some residues); printed as Ac-L-E-G-R-E-K-V-R-A-K(Ac)-I-Aib-Aib-E-G-Nle-S-T-F-S-Mly-R-A-K(Ac)-PEG2-PEG2-PEG2-PEG2-gE-gE-K(gE-gE-Penta)-NH2
# B3: peptide of SEQ ID NO: 175 (peptide)
# peptide: Ac-LEGREKVRAK(Ac)I[Aib][Aib]EG[Nle]STWS[Aib]RKK(Ac)[TtdDga]K([γGlu-γGlu-γGlu-Palmitoyl])-NH2
# SMILES: CCCCCCCCCCCCCCCC(=O)N[C@@H](CCC(=O)N[C@@H](CCC(=O)N[C@@H](CCC(=O)NCCCC[C@H](NC(=O)COCC(=O)NCCCOCCOCCOCCCNC(=O)[C@H](CCCCNC(C)=O)NC(=O)[C@H](CCCCN)NC(=O)[C@H](CCCNC(=N)N)NC(=O)C(C)(C)NC(=O)[C@H](CO)NC(=O)[C@H](Cc1c[nH]c2ccccc12)NC(=O)[C@@H](NC(=O)[C@H](CO)NC(=O)[C@H](CCCC)NC(=O)CNC(=O)[C@H](CCC(=O)O)NC(=O)C(C)(C)NC(=O)C(C)(C)NC(=O)[C@@H](NC(=O)[C@H](CCCCNC(C)=O)NC(=O)[C@H](C)NC(=O)[C@H](CCCNC(=N)N)NC(=O)[C@@H](NC(=O)[C@H](CCCCN)NC(=O)[C@H](CCC(=O)O)NC(=O)[C@H](CCCNC(=N)N)NC(=O)CNC(=O)[C@H](CCC(=O)O)NC(=O)[C@H](CC(C)C)NC(C)=O)C(C)C)[C@@H](C)CC)[C@@H](C)O)C(N)=O)C(=O)O)C(=O)O)C(=O)O
# B4: peptide of SEQ ID NO: 160 (peptide)
# peptide: Ac-LEGREKVRAK(Ac)I[Aib][Aib]EG[Nle]STFSXRAK(Ac)[PEG2′][PEG2′][PEG2′][PEG2′][γGlu][γGlu]K([γGlu-γGlu-Palmitoyl])-NH2
# modifications: not fully specified (some residues); printed as Ac-L-E-G-R-E-K-V-R-A-K(Ac)-I-Aib-Aib-E-G-Nle-S-T-F-S-Mly-R-A-K(Ac)-PEG2-PEG2-PEG2-PEG2-gE-gE-K(gE-gE-Palm)-NH2
# Target: T1, RXFP1 receptor
# Experiment: cell-based or functional assay
"EC50 (nM), OVCAR 5 cells (cAMP) [nM]","EMax, OVCAR 5 cells (cAMP) [%]",Binder
0.18,83,Ac-LEGREKVRAK(Ac)I[Aib][Aib]EG[Nle]STWS[Aib]RKK(Ac)K([PEG2′-PEG2′-PEG2′-γGlu-γGlu-γGlu-Arachidoyl])-NH2 [peptide of SEQ ID NO: 171]
0.02,88,Ac-LEGREKVRAK(Ac)I[Aib][Aib]EG[Nle]STFS[αMeK]RKK(Ac)[PEG2″][PEG2″][PEG2″][PEG2″][γGlu][γGlu]K([γGlu-γGlu-Palmitoyl])-NH2 [peptide of SEQ ID NO: 159]
0.02,89,B1
0.05,93,Ac-LEGREKVRAK(Ac)I[Aib][Aib]EG[Nle]STFS[αMeK]RAK(Ac)[PEG2′][PEG2′][PEG2′][PEG2′]K([γGlu-γGlu-γGlu-γGlu-Pentadecanoyl])-NH2 [peptide of SEQ ID NO: 167]
0.19,85,Ac-LEGREKVRAK(Ac)I[Aib][Aib]EG[Nle]STWS[Aib]RKK(Ac)K([PEG2′-PEG2′-PEG2′-γGlu-γGlu-γGlu-Docosanoyl])-NH2 [peptide of SEQ ID NO: 173]
0.06,90,Ac-LEGREKVRAK(Ac)I[Aib][Aib]EG[Nle]STWS[Aib]AAK(Ac)K([PEG2DGA-PEG2DGA-γGlu-γGlu-γGlu-Stearoyl])-NH2 [peptide of SEQ ID NO: 156]
0.14,90,Ac-LEGREKVRAK(Ac)I[Aib][Aib]EG[Nle]ST[Trp(5-OH)]S[Aib]RKK(Ac)K([PEG2′-PEG2′-PEG2′-γGlu-γGlu-γGlu-Stearoyl])-NH2 [peptide of SEQ ID NO: 158]
0.79,93,Ac-LEGREKVRAK(Ac)I[Aib][Aib]EG[Nle]STWS[Aib]RKK(Ac)K([PEG2′-PEG2′-PEG2′-γGlu-γGlu-γGlu-Heptadecanoyl])-NH2 [peptide of SEQ ID NO: 164]
0.01,87,Ac-LEGREKVRAK(Ac)I[Aib][Aib]EGQSTFS[αMeK]RAK(Ac)[PEG2′][PEG2′][PEG2′][PEG2′]K([γGlu-γGlu-γGlu-γGlu-Palmitoyl])-NH2 [peptide of SEQ ID NO: 170]
0.26,92,Ac-LEGREKVRAK(Ac)I[Aib][Aib]EG[Nle]STWS[Aib]RKK(Ac)K([TTDS″-TTDS″-γGlu-γGlu-γGlu-Palmitoyl])-NH2 [peptide of SEQ ID NO: 166]
0.06,91,B2
,88,Ac-LEGREKVRAQI[Aib][Aib]EG[Nle]STWS[Aib]RKKK([PEG2′-PEG2′-PEG2′-γGlu-γGlu-γGlu-Stearoyl])-NH2 [peptide of SEQ ID NO: 174]
0.17,95,Ac-LEGREKVRAK(Ac)I[Aib][Aib]EG[Nle]STWS[αMeK]RKK(Ac)[PEG2′][PEG2′][PEG2′]K([γGlu-γGlu-γGlu-γGlu-Palmitoyl])-NH2 [peptide of SEQ ID NO: 17]
0.56,95,Ac-LEGREKVRAK(Ac)I[Aib][Aib]EG[Nle]STFS[αMeK]RAK(Ac)[PEG2′][PEG2′][PEG2′][PEG2′]K([γGlu-γGlu-γGlu-γGlu-Myristoyl])-NH2 [peptide of SEQ ID NO: 172]
0.38,105,Ac-LEGREKVRAK(Ac)I[Aib][Aib]EG[Nle]STWS[Aib]RKK(Ac)K([PEG2′-PEG2′-γGlu-γGlu-PEG2′-γGlu-Palmitoyl])-NH2 [peptide of SEQ ID NO: 165]
5.3,87,Ac-LEGREKVRAK(Ac)I[Aib][Aib]EG[Nle]STWS[Aib]RKK(Ac)K([PEG2′-PEG2′-PEG2′-γGlu-γGlu-γGlu-Pentadecanoyl])-NH2 [peptide of SEQ ID NO: 163]
12.1,94,Ac-LEGREKVRAK(Ac)I[Aib][Aib]EGQSTFS[αMeK]RAK(Ac)[PEG2′][PEG2′][PEG2′][PEG2′]K([γGlu-γGlu-γGlu-γGlu-Lauroyl])-NH2 [peptide of SEQ ID NO: 161]
2.21,87,B3
0.28,86,B4
